Broadly, the Kd is the equilibrium constant for the complex coming apart.

The target of assay [1] is T1, Human Semaphorin3A-Fc (R&D Systems), TPP-13211 (human).
T1 construct: R&D Systems 1250-S3; also called recombinant human Sema3A-Fc chimera
Kind of assay: SPR, captured IgG1, Sema3A-Fc analyte. The protocol:
To assess the binding kinetics and affinity of anti-Sema3A antibodies as well as their species cross-reactivity profile, binding assays were conducted using surface plasmon resonance (SPR). Binding assays were performed on a Biacore T200 instrument or on a Biacore 8K+ instrument (Cytiva) at 25° C. using assay buffer HBS P+, 300 mM NaCl, 0.75 mM CaCl₂, 2.5 mM MgCl₂, 1 mg/ml BSA, 0.05% NaN₃. Antibodies were captured either via anti-human Fc IgGs (“Human antibody capture kit”, Order No. BR100839, Cytiva) or in case of Fc-tagged analytes by anti-human Fab IgGs (“Human Fab capture kit”, Order No. 28958325, Cytiva) covalently amine coupled to a Series S CM5 sensor chip (Cytiva). The amine coupling was carried out according to the manufacturer's instructions using 1-ethyl-3-(3-dimethylaminopropyl) carbodiimide hydrochloride (EDC), N-hydroxysuccinimide (NHS) and ethanolamine HCl, pH 8.5 (“Amine Coupling Kit” BR-1000-50, Cytiva.). For phage display hits Fc-tagged human and mouse Sema3A was used as analytes in a concentration range from 1.56-200 nM. Human, mouse, cynomolgus, rat, dog and pig monovalent Sema3A domain were used as analytes in a concentration series from […] in multi cycle kinetics mode or in 100 nM for binding analysis only. The sensor surface was regenerated with glycine pH 2.0 after each antigen injection. Obtained sensorgrams were double referenced (subtraction of reference flow cell signal and buffer injection) and were fitted to a 1:1 Langmuir binding model to derive kinetic data using the Biacore T200 Evaluation software.
(In general: In SPR one partner is held on a chip, and binding of the other changes the refractive index at the surface.)

Assay [2] addresses T1, Human Semaphorin3A-Fc (R&D Systems), …. Kind of assay: cell-based or functional assay.
The target in assay [3] is T2, human wild-type Sema3A of SEQ ID NO: 600, expressed by HEK293 cells (human, UniProt Q14563 22-771, limits assumed).
T2 sequence: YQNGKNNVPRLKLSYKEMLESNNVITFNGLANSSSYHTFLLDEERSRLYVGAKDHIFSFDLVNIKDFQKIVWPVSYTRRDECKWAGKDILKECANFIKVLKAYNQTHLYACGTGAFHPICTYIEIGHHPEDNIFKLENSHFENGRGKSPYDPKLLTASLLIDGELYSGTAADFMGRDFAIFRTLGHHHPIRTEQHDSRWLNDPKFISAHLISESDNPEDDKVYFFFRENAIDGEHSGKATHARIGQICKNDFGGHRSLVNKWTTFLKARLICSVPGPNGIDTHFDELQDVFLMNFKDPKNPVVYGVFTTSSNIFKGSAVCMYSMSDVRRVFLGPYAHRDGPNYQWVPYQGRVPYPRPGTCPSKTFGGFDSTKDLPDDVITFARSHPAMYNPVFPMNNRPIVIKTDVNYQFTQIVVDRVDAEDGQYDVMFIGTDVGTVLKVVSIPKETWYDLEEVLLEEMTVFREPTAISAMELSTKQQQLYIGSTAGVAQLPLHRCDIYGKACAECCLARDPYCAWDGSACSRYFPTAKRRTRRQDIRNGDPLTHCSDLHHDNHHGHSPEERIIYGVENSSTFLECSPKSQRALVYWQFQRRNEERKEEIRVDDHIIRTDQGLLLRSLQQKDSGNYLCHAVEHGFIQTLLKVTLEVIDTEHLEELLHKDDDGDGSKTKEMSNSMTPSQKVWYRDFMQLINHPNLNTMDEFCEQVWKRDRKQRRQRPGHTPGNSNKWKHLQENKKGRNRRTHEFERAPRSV
Kind of assay: cell-based or functional assay.

T1 sequence (chain, as listed by the source limits assumed): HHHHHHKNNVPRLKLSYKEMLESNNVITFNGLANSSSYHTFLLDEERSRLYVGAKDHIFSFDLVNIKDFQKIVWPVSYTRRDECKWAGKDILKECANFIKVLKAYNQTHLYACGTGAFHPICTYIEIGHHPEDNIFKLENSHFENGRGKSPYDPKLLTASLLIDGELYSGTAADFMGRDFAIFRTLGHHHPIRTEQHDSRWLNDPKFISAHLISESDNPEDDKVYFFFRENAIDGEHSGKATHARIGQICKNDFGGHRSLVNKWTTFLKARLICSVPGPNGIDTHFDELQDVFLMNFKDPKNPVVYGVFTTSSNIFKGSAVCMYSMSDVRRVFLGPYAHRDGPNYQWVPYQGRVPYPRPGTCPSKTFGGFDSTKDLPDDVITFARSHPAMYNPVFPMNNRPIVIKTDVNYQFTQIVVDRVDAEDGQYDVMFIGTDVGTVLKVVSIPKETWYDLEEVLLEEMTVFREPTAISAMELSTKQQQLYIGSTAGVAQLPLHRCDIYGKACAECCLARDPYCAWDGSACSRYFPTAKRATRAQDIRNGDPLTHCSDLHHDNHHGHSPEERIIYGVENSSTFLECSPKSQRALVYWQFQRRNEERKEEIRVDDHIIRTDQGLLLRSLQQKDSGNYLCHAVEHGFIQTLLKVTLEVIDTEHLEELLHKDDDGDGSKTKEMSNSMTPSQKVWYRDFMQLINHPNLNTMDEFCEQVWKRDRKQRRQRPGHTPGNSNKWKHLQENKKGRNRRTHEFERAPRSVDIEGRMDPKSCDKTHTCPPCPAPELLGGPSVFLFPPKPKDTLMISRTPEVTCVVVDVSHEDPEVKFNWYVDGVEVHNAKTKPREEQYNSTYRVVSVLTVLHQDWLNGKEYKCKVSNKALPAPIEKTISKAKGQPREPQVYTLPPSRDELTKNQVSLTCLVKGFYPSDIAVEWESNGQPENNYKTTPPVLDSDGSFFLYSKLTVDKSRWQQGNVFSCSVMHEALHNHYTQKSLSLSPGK

B1: TPP-15374 (antibody, human IgG1, lambda, V domains shown)
VH: EVQLLESGGGLVQPGGSLRLSCAASGFTFSSYEMNWVRQAPGKGLEWVSGISWNSGSIGYADSVKGRFTISRDNSKNTLYLQMNSLRAEDTAVYYCARSGYSSSWFDPDFDYWGQGTLVTVSS
VL: QSVLTQPPSASGTPGQRVTISCTGSSSNIGAGYDVHWYQQLPGTAPKLLIYGNSNRPSGVPDRFSGSKSGTSASLAISGLRSEDEADYYCSSYAGSNPYVVFGGGTKLTVLG
notes: human IgG1; also called IgG1, hit from panning; parental mAb
For the molecule B1, in assay [1], the affinity, expressed as Kd, was 18 nM. Also, the “EC50 (nM), GCC assay” value in assay [2] was 8.13 nM.

B2: TPP-15370 (antibody, human IgG1, lambda, V domains shown)
VH: EVQLLESGGGLVQPGGSLRLSCAASGFTFSSYGMHWVRQAPGKGLEWVSAIGTGGDTYYADSVMGRFTISRDNSKNTLYLQMNSLRAEDTAVYYCARRDDYTSRDAFDVWGQGTLVTVSS
VL: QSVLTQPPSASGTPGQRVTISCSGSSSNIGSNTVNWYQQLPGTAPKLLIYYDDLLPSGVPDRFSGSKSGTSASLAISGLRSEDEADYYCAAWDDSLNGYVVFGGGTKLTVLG
notes: as for B1
Molecule B2 registered a Kd in assay [1] of 2.8 nM. Further, in assay [3], the “EC50 (pM), HUVEC repulsion assay” value is 800 pM. For the same molecule, the “EC50 (nM), GCC assay” value in assay [2] turned out to be 4.33 nM.

These data come from patent publication US20240254222A1 (Bayer, published 2024).
